T1: AcGFP-YULINK (full-length) (human, UniProt Q9NXC5-1 1-875)
T1 construct: YULINK, full-length, conjugated with AcGFP; also called full-length AcGFP-YULINK; source: HEK-293 T, co-transfected, in live cells
T1 sequence (looked up): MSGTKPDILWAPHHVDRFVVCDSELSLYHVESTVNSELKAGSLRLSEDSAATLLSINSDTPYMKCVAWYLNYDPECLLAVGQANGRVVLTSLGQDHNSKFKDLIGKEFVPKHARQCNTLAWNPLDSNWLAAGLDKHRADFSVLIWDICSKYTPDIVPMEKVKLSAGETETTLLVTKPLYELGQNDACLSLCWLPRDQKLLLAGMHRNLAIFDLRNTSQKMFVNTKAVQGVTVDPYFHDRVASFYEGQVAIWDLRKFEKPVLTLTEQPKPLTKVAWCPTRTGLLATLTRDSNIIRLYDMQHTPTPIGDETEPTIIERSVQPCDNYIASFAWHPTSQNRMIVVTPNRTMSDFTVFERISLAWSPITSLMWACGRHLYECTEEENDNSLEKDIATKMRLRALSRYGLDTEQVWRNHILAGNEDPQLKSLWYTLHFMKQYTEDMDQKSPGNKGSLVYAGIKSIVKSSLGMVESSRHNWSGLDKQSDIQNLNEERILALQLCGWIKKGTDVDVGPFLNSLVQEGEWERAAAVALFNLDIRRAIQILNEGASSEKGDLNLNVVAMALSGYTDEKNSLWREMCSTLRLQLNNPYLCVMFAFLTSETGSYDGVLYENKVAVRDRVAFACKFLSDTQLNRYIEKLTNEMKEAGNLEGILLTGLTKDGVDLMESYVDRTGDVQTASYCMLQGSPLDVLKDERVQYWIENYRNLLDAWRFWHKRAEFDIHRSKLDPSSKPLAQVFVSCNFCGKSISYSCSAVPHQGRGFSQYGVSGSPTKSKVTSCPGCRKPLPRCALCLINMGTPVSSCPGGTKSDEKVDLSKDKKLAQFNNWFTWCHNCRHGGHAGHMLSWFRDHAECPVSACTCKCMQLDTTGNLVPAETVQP


Legend:
Experiment in all cases: FRET or BRET; FLIM-FRET in HEK-293 T cells 48 h after co-transfection; AcGFP donor on YULINK (full-length or truncated), DsRed acceptor on the partner; mean fluorescence lifetime τ of AcGFP and FRET efficiency E; AcGFP-YULINK alone about 2.71 ns
AcGFP-YULINKΔC (human) = molecular target: AcGFP-YULINKΔC (human)
AcGFP-YULINKΔN (human) = molecular target: AcGFP-YULINKΔN (human)
[1] = molecular target: T1, AcGFP-YULINK (full-length); conditions: partners not purified

Sequence of DsRed-TICAM2 (Q86XR7 whole entry): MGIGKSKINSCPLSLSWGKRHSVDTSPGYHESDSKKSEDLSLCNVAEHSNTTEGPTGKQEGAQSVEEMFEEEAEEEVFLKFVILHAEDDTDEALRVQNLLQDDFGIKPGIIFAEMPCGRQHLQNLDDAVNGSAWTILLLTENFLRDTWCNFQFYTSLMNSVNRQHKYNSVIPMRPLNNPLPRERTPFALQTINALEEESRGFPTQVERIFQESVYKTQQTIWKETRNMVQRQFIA

Row | Molecule | FRET efficiency E (AcGFP-YULINKΔC (human)) | mean fluorescence lifetime τ of the donor (AcGFP-YULINKΔC (human)) | FRET efficiency E (AcGFP-YULINKΔN (human)) | mean fluorescence lifetime τ of the donor (AcGFP-YULINKΔN (human)) | FRET efficiency E [1] | mean fluorescence lifetime τ of the donor [1]
1 | DsRed-TICAM2 (from UniProt Q86XR7 1-235) (natural protein) | 17.7% | 2.23 ns | 19.6% | 2.18 ns | – | –
2 | DsRed-RAB33B (from UniProt Q9H082 1-229) (natural protein) | – | – | 36.5% | 1.72 ns | – | –
3 | DsRed-RAB33B (natural protein, human, UniProt Q9H082 1-229, looked up, RAB33B conjugated with DsRed; source: HEK-293 T, co-transfected, in live cells) MAEEMESSLEASFSSSGAVSGASGFLPPARSRIFKIIVIGDSNVGKTCLTYRFCAGRFPDRTEATIGVDFRERAVEIDGERIKIQLWDTAGQERFRKSMVQHYYRNVHAVVFVYDMTNMASFHSLPSWIEECKQHLLANDIPRILVGNKCDLRSAIQVPTDLAQKFADTHSMPLFETSAKNPNDNDHVEAIFMTLAHKLKSHKPLMLSQPPDNGIILKPEPKPAMTCWC | – | – | – | – | 8.1% | 2.49 ns
4 | DsRed-EPS15 (natural protein, human, UniProt P42566 1-896, looked up, EPS15 conjugated with DsRed; also called DsRed-ESP15; source: HEK-293 T, co-transfected, in live cells) MAAAAQLSLTQLSSGNPVYEKYYRQVDTGNTGRVLASDAAAFLKKSGLPDLILGKIWDLADTDGKGILNKQEFFVALRLVACAQNGLEVSLSSLNLAVPPPRFHDTSSPLLISGTSAAELPWAVKPEDKAKYDAIFDSLSPVNGFLSGDKVKPVLLNSKLPVDILGRVWELSDIDHDGMLDRDEFAVAMFLVYCALEKEPVPMSLPPALVPPSKRKTWVVSPAEKAKYDEIFLKTDKDMDGFVSGLEVREIFLKTGLPSTLLAHIWSLCDTKDCGKLSKDQFALAFHLISQKLIKGIDPPHVLTPEMIPPSDRASLQKNIIGSSPVADFSAIKELDTLNNEIVDLQREKNNVEQDLKEKEDTIKQRTSEVQDLQDEVQRENTNLQKLQAQKQQVQELLDELDEQKAQLEEQLKEVRKKCAEEAQLISSLKAELTSQESQISTYEEELAKAREELSRLQQETAELEESVESGKAQLEPLQQHLQDSQQEISSMQMKLMEMKDLENHNSQLNWCSSPHSILVNGATDYCSLSTSSSETANLNEHVEGQSNLESEPIHQESPARSSPELLPSGVTDENEVTTAVTEKVCSELDNNRHSKEEDPFNVDSSSLTGPVADTNLDFFQSDPFVGSDPFKDDPFGKIDPFGGDPFKGSDPFASDCFFRQSTDPFATSSTDPFSAANNSSITSVETLKHNDPFAPGGTVVAASDSATDPFASVFGNESFGGGFADFSTLSKVNNEDPFRSATSSSVSNVVITKNVFEETSVKSEDEPPALPPKIGTPTRPCPLPPGKRSINKLDSPDPFKLNDPFQPFPGNDSPKEKDPEIFCDPFTSATTTTNKEADPSNFANFSAYPSEEDMIEWAKRESEREEEQRLARLNQQEQEDLELAIALSKSEISEA | – | – | – | – | 11.4% | 2.4 ns
